# Assays:
# [1] = test system: SH-SY5Y neuroblastoma cells; test: Apoptosis assay, Annexin V-FITC staining; assay type: cell-based; details: SHSY-5Y cells, 1 μM, data not shown
# [2] = Electron microscopy of assembly morphology; assay type: physicochemical; details: EM
# Thioflavin T = assay type: physicochemical; details: 20 µM peptide, 40 µM ThT, pH 7.5, 37°C, shaking
# [3] = test system: differentiated PC12 cells; test: MTT assay; assay type: cell-based; details: NGF-differentiated PC12 cells, 10 µM freshly prepared peptide, 24 h, 37°C; normalized to media control; three independent experiments, 6 wells
# [4] = Oligomerization by PICUP and SDS-PAGE; assay type: physicochemical; details: 25–35 μM peptide, cross-linked, SDS-PAGE, silver staining
# [5] = Thermodynamics of fibril formation; assay type: physicochemical; details: ΔG^0 = −RT ln (1/Cr); 20 μM, 37°C, 21 days without shaking; four independent experiments
# [6] = Ion mobility-mass spectrometry, oligomer distributions; assay type: physicochemical; details: IM-MS, 10 μM peptide in 10 mM ammonium acetate, pH 7.4
# [7] = Quasielastic light scattering spectroscopy; assay type: physicochemical; details: QLS
# [8] = Bis-ANS fluorescence, exposure of hydrophobic surfaces; assay type: physicochemical; details: 20 µM peptide incubated at 37°C, shaking
Compound,effect of positive control on cells [1],"globules, size range, Day 0 ([2]; 37°C with shaking, day 0, Image J)","long fibrils, size range, Day 7 ([2]; 37°C with shaking, day 7)","short fibrils, assembly length, Day 7 ([2]; 37°C with shaking, day 7, value in parentheses)","annuli, inside diameter, Day 0 ([2]; day 0)","annuli, outside diameter, Day 0 ([2]; day 0)",time ThT fluorescence remained constant (lag) (Thioflavin T),decrease in MTT metabolism [3],oligomer size distribution by PICUP [4],ΔG^0 of fibril formation [5],oligomers assigned in ATD of z/n = −5/2 peak [6],"RH of small particles, initial distribution ([7]; 0.5 h of incubation)","RH of larger particles also observed, initial distribution ([7]; 0.5 h of incubation, relatively few particles)",RH of oligomers remaining after 24 h ([7]; 24 h of incubation),maximal RH after 24 h ([7]; 24 h of incubation),time of peak Bis-ANS fluorescence [8]
CN[C@@H]1C[C@H]2O[C@@](C)([C@@H]1OC)n1c3ccccc3c3c4c(c5c6ccccc6n2c5c31)C(=O)NC4 [staurosporine],complete disruption of membrane integrity,,,,,,,,,,,,,,,
Amyloid β−protein (1–42) [Aβ42],,11–23 nm,9–21 nm,56–303 nm,4–11 nm,13–25 nm,≈ 1 h,≈ 23%,prominent node of band intensity at pentamer-hexamer,−8.45 (0.12) kcal/mole,"dimer, tetramer, hexamer, and dodecamer",8–10 nm,100–1000 nm,8–10 nm,> 1000 nm,4 h
